Consider four variants from PMC10746786 (2023).

B1: FLAG-tagged EIF4G2 WT [human] / HADHB [human (endogenous in HEK293T)] (parent complex)
chain 1: MESAIAEGGASRFSASSGGGGSRGAPQHYPKTAGNSEFLGKTPGQNAQKWIPARSTRRDDNSAANNSANEKERHDAIFRKVRGILNKLTPEKFDKLCLELLNVGVESKLILKGVILLIVDKALEEPKYSSLYAQLCLRLAEDAPNFDGPAAEGQPGQKQSTTFRRLLISKLQDEFENRTRNVDVYDKRENPLLPEEEEQRAIAKIKMLGNIKFIGELGKLDLIHESILHKCIKTLLEKKKRVQLKDMGEDLECLCQIMRTVGPRLDHERAKSLMDQYFARMCSLMLSKELPARIRFLLQDTVELREHHWVPRKAFLDNGPKTINQIRQDAVKDLGVFIPAPMAQGMRSDFFLEGPFMPPRMKMDRDPLGGLADMFGQMPGSGIGTGPGVIQDRFSPTMGRHRSNQLFNGHGGHIMPPTQSQFGEMGGKFMKSQGLSQLYHNQSQGLLSQLQGQSKDMPPRFSKKGQLNADEISLRPAQSFLMNKNQVPKLQPQITMIPPSAQPPRTQTPPLGQTPQLGLKTNPPLIQEKPAKTSKKPPPSKEELLKLTETVVTEYLNSGNANEAVNGVREMRAPKHFLPEMLSKVIILSLDRSDEDKEKASSLISLLKQEGIATSDNFMQAFLNVLDQCPKLEVDIPLVKSYLAQFAARAIISELVSISELAQPLESGTHFPLFLLCLQQLAKLQDREWLTELFQQSKVNMQKMLPEIDQNKDRMLEILEGKGLSFLFPLLKLEKELLKQIKLDPSPQTIYKWIKDNISPKLHVDKGFVNILMTSFLQYISSEVNPPSDETDSSSAPSKEQLEQEKQLLLSFKPVMQKFLHDHVDLQVSALYALQVHCYNSNFPKGMLLRFFVHFYDMEIIEEEAFLAWKEDITQEFPGKGKALFQVNQWLTWLETAEEEESEEEAD
chain 2: AAPAVQTKTKKTLAKPNIRNVVVVDGVRTPFLLSGTSYKDLMPHDLARAALTGLLHRTSVPKEVVDYIIFGTVIQEVKTSNVAREAALGAGFSDKTPAHTVTMACISANQAMTTGVGLIASGQCDVIVAGGVELMSDVPIRHSRKMRKLMLDLNKAKSMGQRLSLISKFRFNFLAPELPAVSEFSTSETMGHSADRLAAAFAVSRLEQDEYALRSHSLAKKAQDEGLLSDVVPFKVPGKDTVTKDNGIRPSSLEQMAKLKPAFIKPYGTVTAANSSFLTDGASAMLIMAEEKALAMGYKPKAYLRDFMYVSQDPKDQLLLGPTYATPKVLEKAGLTMNDIDAFEFHEAFSGQILANFKAMDSDWFAENYMGRKTKVGLPPLEKFNNWGGSLSLGHPFGATGCRLVMAAANRLRKEGGQYGLVAACAAGGQGHAMIVEAYPK
B2: FLAG-tagged EIF4G2 WT [human] / EIF4A2 [human (endogenous in HEK293T)] (parent complex)
chain 1: B1 chain 1
chain 2: MSGGSADYNREHGGPEGMDPDGVIESNWNEIVDNFDDMNLKESLLRGIYAYGFEKPSAIQQRAIIPCIKGYDVIAQAQSGTGKTATFAISILQQLEIEFKETQALVLAPTRELAQQIQKVILALGDYMGATCHACIGGTNVRNEMQKLQAEAPHIVVGTPGRVFDMLNRRYLSPKWIKMFVLDEADEMLSRGFKDQIYEIFQKLNTSIQVVLLSATMPTDVLEVTKKFMRDPIRILVKKEELTLEGIKQFYINVEREEWKLDTLCDLYETLTITQAVIFLNTRRKVDWLTEKMHARDFTVSALHGDMDQKERDVIMREFRSGSSRVLITTDLLARGIDVQQVSLVINYDLPTNRENYIHRIGRGGRFGRKGVAINFVTEEDKRILRDIETFYNTTVEEMPMNVADLI
B3: FLAG-tagged EIF4G2 WT [human] / PRRC2C [human (endogenous in HEK293T)] (parent complex)
chain 1: B1 chain 1
chain 2: MSEKSGQSTKAKDGKKYATLSLFNTYKGKSLETQKTTARHGLQSLGKVGISRRMPPPANLPSLKAENKGNDPNVNIVPKDGTGWASKQEQHEEEKTPEVPPAQPKPGVAAPPEVAPAPKSWASNKQGGQGDGIQVNSQFQQEFPSLQAAGDQEKKEKETNDDNYGPGPSLRPPNVACWRDGGKAAGSPSSSDQDEKLPGQDESTAGTSEQNDILKVVEKRIACGPPQAKLNGQQAALASQYRAMMPPYMFQQYPRMTYPPLHGPMRFPPSLSETNKGLRGRGPPPSWASEPERPSILSASELKELDKFDNLDAEADEGWAGAQMEVDYTEQLNFSDDDEQGSNSPKENNSEDQGSKASENNENKKETDEVSNTKSSSQIPAQPSVAKVPYGKGPSFNQERGTSSHLPPPPKLLAQQHPPPDRQAVPGRPGPFPSKQQVADEDEIWKQRRRQQSEISAAVERARKRREEEERRMEEQRKAACAEKLKRLDEKLGILEKQPSPEEIREREREKEREREKELEKEQEQEREKEREKDRERQQEKEKELEKEQEKQREMEKERKQEKEKELERQKEKEKELQKMKEQEKECELEKEREKLEEKIEPREPNLEPMVEKQESENSCNKEEEPVFTRQDSNRSEKEATPVVHETEPESGSQPRPAVLSGYFKQFQKSLPPRFQRQQEQMKQQQWQQQQQQGVLPQTVPSQPSSSTVPPPPHRPLYQPMQPHPQHLASMGFDPRWLMMQSYMDPRMMSGRPAMDIPPIHPGMIPPKPLMRRDQMEGSPNSSESFEHIARSARDHAISLSEPRMLWGSDPYPHAEPQQATTPKATEEPEDVRSEAALDQEQITAAYSVEHNQLEAHPKADFIRESSEAQVQKFLSRSVEDVRPHHTDANNQSACFEAPDQKTLSAPQEERISAVESQPSRKRSVSHGSNHTQKPDEQRSEPSAGIPKVTSRCIDSKEPIERPEEKPKKEGFIRSSEGPKPEKVYKSKSETRWGPRPSSNRREEVNDRPVRRSGPIKKPVLRDMKEEREQRKEKEGEKAEKVTEKVVVKPEKTEKKDLPPPPPPPQPPAPIQPQSVPPPIQPEAEKFPSTETATLAQKPSQDTEKPLEPVSTVQVEPAVKTVNQQTMAAPVVKEEKQPEKVISKDLVIERPRPDSRPAVKKESTLPPRTYWKEARERDWFPDQGYRGRGRGEYYSRGRSYRGSYGGRGRGGRGHTRDYPQYRDNKPRAEHIPSGPLRQREESETRSESSDFEVVPKRRRQRGSETDTDSEIHESASDKDSLSKGKLPKREERPENKKPVKPHSSFKPDNHVRIDNRLLEKPYVRDDDKAKPGFLPKGEPTRRGRGGTFRRGGRDPGGRPSRPSTLRRPAYRDNQWNPRQSEVPKPEDGEPPRRHEQFIPIAADKRPPKFERKFDPARERPRRQRPTRPPRQDKPPRFRRLREREAASKSNEVVAVPTNGTVNNVAQEPVNTLGDISGNKTPDLSNQNSSDQANEEWETASESSDFNERRERDEKKNADLNAQTVVKVGENVLPPKREIAKRSFSSQRPVDRQNRRGNNGPPKSGRNFSGPRNERRSGPPSKSGKRGPFDDQPAGTTGVDLINGSSAHHQEGVPNGTGQKNSKDSTGKKREDPKPGPKKPKEKVDALSQFDLNNYASVVIIDDHPEVTVIEDPQSNLNDDGFTEVVSKKQQKRLQDEERRKKEEQVIQVWNKKNANEKGRSQTSKLPPRFAKKQATGIQQAQSSASVPPLASAPLPPSTSASVPASTSAPLPATLTPVPASTSAPVPASTLAPVLASTSAPVPASPLAPVSASASVSASVPASTSAAAITSSSAPASAPAPTPILASVSTPASVTILASASIPILASALASTSAPTPAPAASSPAAPVITAPTIPASAPTASVPLAPASASAPAPAPTPVSAPNPAPPAPAQTQAQTHKPVQNPLQTTSQSSKQPPPSIRLPSAQTPNGTDYVASGKSIQTPQSHGTLTAELWDNKVAPPAVLNDISKKLGPISPPQPPSVSAWNKPLTSFGSAPSSEGAKNGQESGLEIGTDTIQFGAPASNGNENEVVPVLSEKSADKIPEPKEQRQKQPRAGPIKAQKLPDLSPVENKEHKPGPIGKERSLKNRKVKDAQQVEPEGQEKPSPATVRSTDPVTTKETKAVSEMSTEIGTMISVSSAEYGTNAKESVTDYTTPSSSLPNTVATNNTKMEDTLVNNVPLPNTLPLPKRETIQQSSSLTSVPPTTFSLTFKMESARKAWENSPNVREKGSPVTSTAPPIATGVSSSASGPSTANYNSFSSASMPQIPVASVTPTASLSGAGTYTTSSLSTKSTTTSDPPNICKVKPQQLQTSSLPSASHFSQLSCMPSLIAQQQQNPQVYVSQSAAAQIPAFYMDTSHLFNTQHARLAPPSLAQQQGFQPGLSQPTSVQQIPIPIYAPLQGQHQAQLSLGAGPAVSQAQELFSSSLQPYRSQPAFMQSSLSQPSVVLSGTAIHNFPTVQHQELAKAQSGLAFQQTSNTQPIPILYEHQLGQASGLGGSQLIDTHLLQARANLTQASNLYSGQVQQPGQTNFYNTAQSPSALQQVTVPLPASQLSLPNFGSTGQPLIALPQTLQPPLQHTTPQAQAQSLSRPAQVSQPFRGLIPAGTQHSMIATTGKMSEMELKAFGSGIDIKPGTPPIAGRSTTPTSSPFRATSTSPNSQSSKMNSIVYQKQFQSAPATVRMTQPFPTQFAPQILSQPNLVPPLVRAPHTNTFPAPVQRPPMALASQMPPPLTTGLMSHARLPHVARGPCGSLSGVRGNQAQAALKAEQDMKAKQRAEVLQSTQRFFSEQQQSKQIGGGKAQKVDSDSSKPPETLTDPPGVCQEKVEEKPPPAPSIATKPVRTGPIKPQAIKTEETKS

Variants of B1 are the subject of one assay. Description: co-immunoprecipitation followed by mass spectrometry; FLAG-tagged EIF4G2 transfected into HEK293T cells; corrected for EIF4G2 levels in IP; read off a plot.
chain 1 R178Q: the ratio to parent is about 4.9.

Variants of B2 are the subject of a further assay. The description is as above.
chain 1 R178Q: the ratio to parent is about 5.6.

In a further assay the parent is B3. The assay is described as above.
As to chain 1 N785K, the ratio to parent is about 1.6.
Still for that read-out and setting: the figure for chain 1 R165C is about 2.4.
